The target of one data set is T1, APG06646.1 (Bacillus sp.).
T1 chain: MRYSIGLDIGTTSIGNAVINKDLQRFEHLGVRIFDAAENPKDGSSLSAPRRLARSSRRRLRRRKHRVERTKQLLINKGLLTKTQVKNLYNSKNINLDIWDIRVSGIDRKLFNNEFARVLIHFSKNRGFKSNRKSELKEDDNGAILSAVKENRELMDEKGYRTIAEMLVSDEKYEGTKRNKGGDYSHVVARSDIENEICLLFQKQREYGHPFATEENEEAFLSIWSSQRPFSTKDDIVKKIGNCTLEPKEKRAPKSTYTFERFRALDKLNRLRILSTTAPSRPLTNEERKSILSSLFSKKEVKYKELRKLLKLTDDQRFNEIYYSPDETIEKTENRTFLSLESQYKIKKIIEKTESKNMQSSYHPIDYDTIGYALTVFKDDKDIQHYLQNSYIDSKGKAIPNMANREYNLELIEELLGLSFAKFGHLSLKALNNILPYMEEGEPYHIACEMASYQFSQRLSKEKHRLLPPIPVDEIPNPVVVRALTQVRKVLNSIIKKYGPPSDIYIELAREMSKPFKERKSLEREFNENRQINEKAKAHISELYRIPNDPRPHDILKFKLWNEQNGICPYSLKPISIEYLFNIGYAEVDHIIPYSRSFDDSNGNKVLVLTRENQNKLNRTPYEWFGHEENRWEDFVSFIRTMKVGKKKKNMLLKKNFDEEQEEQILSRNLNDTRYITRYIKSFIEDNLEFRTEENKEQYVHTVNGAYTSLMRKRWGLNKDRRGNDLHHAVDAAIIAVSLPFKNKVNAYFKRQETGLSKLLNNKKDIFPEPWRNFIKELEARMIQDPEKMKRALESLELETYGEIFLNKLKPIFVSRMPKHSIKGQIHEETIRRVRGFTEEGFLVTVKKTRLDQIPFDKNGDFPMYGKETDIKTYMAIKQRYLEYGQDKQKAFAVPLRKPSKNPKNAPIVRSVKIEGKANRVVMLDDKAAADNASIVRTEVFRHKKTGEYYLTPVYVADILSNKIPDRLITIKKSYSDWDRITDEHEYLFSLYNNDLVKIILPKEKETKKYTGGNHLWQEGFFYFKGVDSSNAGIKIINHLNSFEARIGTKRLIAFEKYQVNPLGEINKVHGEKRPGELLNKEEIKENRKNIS
Kind of data set: cell_activity; PAM NNNNC 3'. The note with it: tags: N-term SV40 NLS and 3xFLAG, C-term 2x nucleoplasmin NLS in HEK293T.

For a further data set, the target named is T2, APG01658.1 (Staphylococcus sp.).
T2 chain: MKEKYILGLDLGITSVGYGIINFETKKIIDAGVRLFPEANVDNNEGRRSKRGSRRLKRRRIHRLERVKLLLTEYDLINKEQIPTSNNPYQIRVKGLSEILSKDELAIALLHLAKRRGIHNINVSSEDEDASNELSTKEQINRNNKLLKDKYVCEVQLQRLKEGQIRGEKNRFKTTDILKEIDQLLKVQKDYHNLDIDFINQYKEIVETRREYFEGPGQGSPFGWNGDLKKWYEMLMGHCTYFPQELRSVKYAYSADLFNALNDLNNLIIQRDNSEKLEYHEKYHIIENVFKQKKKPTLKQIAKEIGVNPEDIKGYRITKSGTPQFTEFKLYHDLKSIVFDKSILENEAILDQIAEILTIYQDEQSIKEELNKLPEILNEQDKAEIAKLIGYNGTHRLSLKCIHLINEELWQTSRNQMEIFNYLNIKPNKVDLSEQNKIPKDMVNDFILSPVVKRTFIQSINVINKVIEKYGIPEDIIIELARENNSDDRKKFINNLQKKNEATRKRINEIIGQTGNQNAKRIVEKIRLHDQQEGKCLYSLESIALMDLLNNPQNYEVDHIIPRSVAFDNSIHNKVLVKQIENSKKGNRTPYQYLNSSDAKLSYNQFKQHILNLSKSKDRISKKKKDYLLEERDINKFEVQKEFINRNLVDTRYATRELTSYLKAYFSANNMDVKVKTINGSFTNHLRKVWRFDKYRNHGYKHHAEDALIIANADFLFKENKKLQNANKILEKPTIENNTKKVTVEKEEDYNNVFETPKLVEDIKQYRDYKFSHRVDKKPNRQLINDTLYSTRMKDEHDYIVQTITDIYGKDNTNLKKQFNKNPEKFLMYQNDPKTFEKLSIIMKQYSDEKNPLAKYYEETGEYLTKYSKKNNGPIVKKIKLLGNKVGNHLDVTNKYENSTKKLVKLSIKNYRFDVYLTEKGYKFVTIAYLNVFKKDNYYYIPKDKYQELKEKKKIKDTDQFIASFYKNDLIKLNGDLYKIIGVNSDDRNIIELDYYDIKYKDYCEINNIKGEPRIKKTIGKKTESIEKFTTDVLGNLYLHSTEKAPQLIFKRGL
Kind of data set: cell_activity; PAM SEQ ID NO 44, 3' of target. The note with it: tags: N-term SV40 NLS and 3xFLAG, C-term 2x nucleoplasmin NLS in HEK293T.

The record followed here is US20220364074, “RNA-GUIDED NUCLEASES AND ACTIVE FRAGMENTS AND VARIANTS THEREOF AND METHODS OF USE” (LIFEEDIT THERAPEUTICS, INC., published 2022).

B1: guide 462 ; AurkB target 523 (ssRNA ; dsDNA)
RNA: GUUUUAAUGGCCCAGCCUCACACCCGCCAUAAUUCCUCUGUAAAACUUAAAGAAGGUUUAUAGAGUUAUUAUGGUAAGGCAAUAUGCCGUGGCGUUGGGGAUCGCCUAUGUCCGGUUUUACCGGAUCUCCCUAAAGGUGACUAACUUUGGUUAGUCACCUUUUU
DNA 1: GTTTTAATGGCCCAGCCTCACACCC
DNA 2: GGGTGTGAGGCTGGGCCATTAAAAC
B1 returned an activity with APG06646.1 of 10.9 % editing.

B2: guide 450 ; AurkB target 493 (ssRNA ; dsDNA)
RNA: CAUGGCAGUACAUUAGAGCAGCCAUAAUUCCUCUGUAAAACUUAAAGAAGGUUUAUAGAGUUAUUAUGGUAAGGCAAUAUGCCGUGGCGUUGGGGAUCGCCUAUGUCCGGUUUUACCGGAUCUCCCUAAAGGUGACUAACUUUGGUUAGUCACCUUUUU
DNA 1: CATGGCAGTACATTAGAGCA
DNA 2: TGCTCTAATGTACTGCCATG
As for B2, the activity with APG06646.1 worked out at 7.94 % editing.

B3: guide 451 ; TRA target 512 (ssRNA ; dsDNA)
RNA: CCCUGGCUGUGCACAUUCCCUCCUGGCCAUAAUUCCUCUGUAAAACUUAAAGAAGGUUUAUAGAGUUAUUAUGGUAAGGCAAUAUGCCGUGGCGUUGGGGAUCGCCUAUGUCCGGUUUUACCGGAUCUCCCUAAAGGUGACUAACUUUGGUUAGUCACCUUUUU
DNA 1: CCCTGGCTGTGCACATTCCCTCCTG
DNA 2: CAGGAGGGAATGTGCACAGCCAGGG
In the data set with APG06646.1, B3 displayed an activity of 7.03 % editing.

B4: guide 423 ; RelA target 486 (ssRNA ; dsDNA)
RNA: ACAGUGCGCAUCUCCCUGGUCACCGUUUUAGUACUCUGUAAUUUUAGGUAUGAAAGUCAUACCUAAAAUUACAGAAUCUACUGAAACAAGACUAUAUGUCGUGUUUAUCCCACUAAUUUAUUAGUGGGAUUUU
DNA 1: ACAGTGCGCATCTCCCTGGTCACC
DNA 2: GGTGACCAGGGAGATGCGCACTGT
On to B4, for which the activity with APG01658.1 worked out at 10 % editing.

B5: guide 428 ; AurkB target 491 (ssRNA ; dsDNA)
RNA: GGCUGGGCCAUUAAAACCUCUCCAGUUUUAGUACUCUGUAAUUUUAGGUAUGAAAGUCAUACCUAAAAUUACAGAAUCUACUGAAACAAGACUAUAUGUCGUGUUUAUCCCACUAAUUUAUUAGUGGGAUUUU
DNA 1: GGCTGGGCCATTAAAACCTCTCCA
DNA 2: TGGAGAGGTTTTAATGGCCCAGCC
Turning to B5, in the data set with APG01658.1, the activity stood at 13.1 % editing.
